Measured values from the supplement of paper PMC9876800.

Tested on: peptide library, one residue held at a place counted from the S/T acceptor
Assay: relative phosphorylation of the sub-library (ratio to the mean residue at this position); higher = residue favoured
Outline: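 Purified recombinant kinases, either human or orthologue constructs, were incubated in 384-well plates with biotinylated degenerate peptide sub-libraries. Each sub-library fixed one residue at one position around a central Ser/Thr. Peptides at 50 μM and 50 μM ATP spiked with γ-32P-ATP were used for 90 min under kinase-specific conditions, and spots on streptavidin membranes were phosphorimaged and quantified by densitometry. Relative sub-library phosphorylation is expressed as a ratio to the mean residue at that position.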

VRK1, construct: Full length, human, sequence (Q99986 whole entry, looked up): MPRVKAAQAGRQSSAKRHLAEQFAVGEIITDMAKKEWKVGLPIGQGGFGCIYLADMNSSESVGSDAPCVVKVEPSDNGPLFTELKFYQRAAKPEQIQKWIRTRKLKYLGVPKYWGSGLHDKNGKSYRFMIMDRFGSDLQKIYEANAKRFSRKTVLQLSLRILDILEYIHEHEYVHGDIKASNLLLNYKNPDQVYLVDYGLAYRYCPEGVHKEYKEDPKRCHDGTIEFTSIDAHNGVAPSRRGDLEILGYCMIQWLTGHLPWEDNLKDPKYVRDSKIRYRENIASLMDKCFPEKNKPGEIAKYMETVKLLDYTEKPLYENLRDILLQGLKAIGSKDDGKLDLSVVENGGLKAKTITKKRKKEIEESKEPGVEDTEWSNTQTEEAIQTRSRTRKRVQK
BMP2K, construct: aa37-345, human, sequence (Q9NSY1 37-345, looked up): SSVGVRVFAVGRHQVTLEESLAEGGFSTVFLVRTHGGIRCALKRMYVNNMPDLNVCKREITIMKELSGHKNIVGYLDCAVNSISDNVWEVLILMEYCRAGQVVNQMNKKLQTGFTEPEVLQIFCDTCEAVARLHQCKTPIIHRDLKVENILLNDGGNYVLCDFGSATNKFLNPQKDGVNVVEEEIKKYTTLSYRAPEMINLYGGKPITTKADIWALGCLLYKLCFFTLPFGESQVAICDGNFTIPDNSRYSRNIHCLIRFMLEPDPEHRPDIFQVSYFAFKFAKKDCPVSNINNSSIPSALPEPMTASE
CDKL5, construct: aa1-352, mouse, sequence (Q3UTQ8 1-352, looked up): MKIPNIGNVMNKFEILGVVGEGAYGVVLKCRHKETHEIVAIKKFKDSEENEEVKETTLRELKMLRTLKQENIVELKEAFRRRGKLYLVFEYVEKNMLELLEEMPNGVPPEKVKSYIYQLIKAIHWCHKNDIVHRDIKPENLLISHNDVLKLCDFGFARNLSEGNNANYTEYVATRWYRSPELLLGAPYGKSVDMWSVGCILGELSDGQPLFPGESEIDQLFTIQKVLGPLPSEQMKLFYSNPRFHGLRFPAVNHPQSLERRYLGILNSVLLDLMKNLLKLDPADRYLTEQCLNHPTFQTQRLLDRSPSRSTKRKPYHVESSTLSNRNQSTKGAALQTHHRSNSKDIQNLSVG
MAP3K15, construct: aa631-922, human, sequence (Q6ZN16 631-922, looked up): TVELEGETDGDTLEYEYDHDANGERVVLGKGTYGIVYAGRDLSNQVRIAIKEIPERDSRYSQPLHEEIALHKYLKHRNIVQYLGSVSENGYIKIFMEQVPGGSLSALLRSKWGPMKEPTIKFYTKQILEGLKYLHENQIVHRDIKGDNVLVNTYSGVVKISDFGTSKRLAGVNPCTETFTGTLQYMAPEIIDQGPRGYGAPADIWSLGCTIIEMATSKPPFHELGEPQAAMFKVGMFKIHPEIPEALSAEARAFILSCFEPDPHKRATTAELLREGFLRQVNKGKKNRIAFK

CDKL5, construct: aa1-352, mouse (from UniProt Q3UTQ8)
relative phosphorylation
Conditions | at +1 | at +2 | at +3 | at +4 | at -1 | at -2 | at -3 | at -4 | at -5
A fixed | 4.03 | 0.798 | 1.01 | 0.928 | 1.15 | 0.826 | 0.761 | 1.03 | 1.12
D fixed | 0.548 | 0.548 | 0.634 | 0.701 | 0.779 | 0.559 | 0.412 | 0.625 | 0.556
E fixed | 0.528 | 0.56 | 0.567 | 0.593 | 0.581 | 0.543 | 0.427 | 0.652 | 0.543
F fixed | 0.588 | 0.903 | 1.03 | 1.02 | 0.782 | 0.665 | 0.49 | 0.866 | 1.07
G fixed | 1.51 | 0.936 | 1.03 | 1.07 | 1.22 | 1.06 | 0.65 | 1.04 | 1.24
H fixed | 0.679 | 1.32 | 0.979 | 1.19 | 0.916 | 0.7 | 0.61 | 0.928 | 1.17
I fixed | 0.584 | 0.853 | 0.914 | 0.915 | 0.812 | 0.681 | 0.559 | 0.9 | 0.958
K fixed | 0.861 | 1.77 | 1.42 | 1.25 | 1.49 | 0.976 | 0.826 | 1.46 | 1.24
L fixed | 0.564 | 0.851 | 0.896 | 0.925 | 1.04 | 0.817 | 0.516 | 0.938 | 0.974
M fixed | 0.6 | 0.832 | 0.876 | 0.94 | 1.08 | 0.718 | 0.531 | 0.997 | 0.972
N fixed | 0.592 | 0.924 | 0.895 | 1.01 | 0.737 | 0.575 | 0.6 | 0.861 | 0.8
P fixed | 2.33 | 0.697 | 1.07 | 1.09 | 1.11 | 5.09 | 0.758 | 1.1 | 0.909
Q fixed | 0.704 | 0.903 | 0.926 | 0.909 | 1.1 | 0.693 | 0.658 | 1.03 | 0.854
R fixed | 1.06 | 2.48 | 1.71 | 1.51 | 1.49 | 1.05 | 7.65 | 1.9 | 1.65
V fixed | 0.624 | 0.757 | 1.01 | 0.798 | 0.885 | 0.715 | 0.538 | 0.977 | 0.88
W fixed | 0.631 | 0.828 | 0.852 | 1.17 | 1.04 | 0.691 | 0.515 | 0.847 | 1.07
Y fixed | 0.563 | 1.04 | 1.19 | 0.987 | 0.794 | 0.645 | 0.499 | 0.844 | 0.994
pThr fixed | 0.581 | 0.54 | 0.682 | 0.65 | 0.567 | 0.588 | 0.456 | 0.785 | 0.702
pTyr fixed | 0.522 | 0.61 | 0.636 | 0.626 | 0.53 | 0.534 | 0.458 | 0.652 | 0.594

BMP2K, construct: aa37-345, human (from UniProt Q9NSY1)
relative phosphorylation
Conditions | at +1 | at +2 | at +3 | at +4 | at -1 | at -2 | at -3 | at -4 | at -5
A fixed | 0.537 | 1.05 | 0.882 | 0.9 | 0.668 | 0.84 | 1.54 | 1.11 | 0.639
D fixed | 0.361 | 0.974 | 0.763 | 0.733 | 0.467 | 1.22 | 0.575 | 0.621 | 0.453
E fixed | 0.338 | 0.938 | 0.68 | 0.806 | 0.428 | 0.942 | 0.684 | 0.871 | 0.45
F fixed | 0.379 | 0.866 | 0.81 | 0.94 | 1.26 | 0.754 | 0.916 | 0.963 | 0.863
G fixed | 10.2 | 0.959 | 1.4 | 0.987 | 0.76 | 0.579 | 0.812 | 1.04 | 0.565
H fixed | 0.392 | 1.08 | 1.21 | 0.989 | 1.35 | 1 | 0.815 | 0.95 | 0.739
I fixed | 0.351 | 0.716 | 0.716 | 0.769 | 0.852 | 0.713 | 1.26 | 1 | 1.92
K fixed | 0.435 | 0.966 | 1.2 | 1.39 | 1.76 | 0.993 | 0.926 | 1.31 | 0.594
L fixed | 0.349 | 0.699 | 0.841 | 0.801 | 1.17 | 0.96 | 0.901 | 1.15 | 1.39
M fixed | 0.368 | 0.842 | 0.765 | 0.847 | 1.18 | 1.91 | 1.46 | 1.12 | 1.24
N fixed | 0.46 | 1.62 | 1.28 | 1.06 | 0.717 | 1.17 | 0.843 | 0.845 | 0.61
P fixed | 0.674 | 0.802 | 1.01 | 0.988 | 0.846 | 0.485 | 1.34 | 0.868 | 1.13
Q fixed | 0.384 | 1.22 | 1.04 | 1.14 | 0.818 | 2.26 | 1.02 | 1.08 | 1.02
R fixed | 0.605 | 1.37 | 1.51 | 1.54 | 1.36 | 1 | 1.03 | 1.29 | 1.55
V fixed | 0.358 | 0.87 | 0.929 | 0.753 | 0.806 | 0.64 | 1.17 | 0.987 | 1.32
W fixed | 0.431 | 1.06 | 0.963 | 1.26 | 0.984 | 0.676 | 0.832 | 0.81 | 0.794
Y fixed | 0.414 | 0.964 | 1 | 1.1 | 1.58 | 0.872 | 0.897 | 0.977 | 1.73
pThr fixed | 0.4 | 0.715 | 0.663 | 0.527 | 0.427 | 0.528 | 0.634 | 0.638 | 0.583
pTyr fixed | 0.357 | 0.841 | 0.698 | 0.572 | 0.527 | 0.928 | 0.647 | 0.72 | 1.19

VRK1, construct: Full length, human (from UniProt Q99986)
relative phosphorylation
Conditions | at +1 | at +2 | at +3 | at +4 | at -1 | at -2 | at -3 | at -4 | at -5
A fixed | 0.79 | 0.924 | 1.23 | 0.978 | 0.758 | 1.02 | 1.09 | 1.03 | 1.08
D fixed | 0.363 | 0.406 | 0.525 | 0.96 | 0.661 | 0.802 | 0.824 | 0.886 | 0.865
E fixed | 0.548 | 0.393 | 0.461 | 0.739 | 0.608 | 0.645 | 0.81 | 0.927 | 0.837
F fixed | 0.972 | 0.746 | 0.877 | 1.01 | 1.04 | 0.8 | 0.902 | 1.02 | 1.01
G fixed | 0.532 | 0.549 | 1.7 | 1.31 | 0.648 | 2.31 | 1.45 | 1.34 | 1.34
H fixed | 0.951 | 0.83 | 1.79 | 1.03 | 1.17 | 1.21 | 1.15 | 1.15 | 1.01
I fixed | 0.921 | 1.63 | 0.573 | 0.884 | 1.31 | 0.622 | 0.772 | 0.859 | 0.822
K fixed | 1.4 | 1.45 | 0.815 | 0.87 | 0.984 | 0.759 | 1.02 | 0.865 | 0.88
L fixed | 0.642 | 1.22 | 0.637 | 0.985 | 1.33 | 0.764 | 0.745 | 0.796 | 0.646
M fixed | 1.11 | 1.67 | 0.865 | 1.06 | 1.06 | 0.946 | 0.862 | 0.916 | 0.835
N fixed | 0.724 | 0.64 | 1.65 | 0.997 | 0.843 | 1.38 | 0.982 | 1.06 | 0.919
P fixed | 0.305 | 0.423 | 0.456 | 0.688 | 0.738 | 1.25 | 1.28 | 1.02 | 1.21
Q fixed | 1.4 | 1.34 | 0.988 | 0.952 | 0.977 | 1.19 | 1.03 | 0.962 | 1.01
R fixed | 2.6 | 1.2 | 1.22 | 1.33 | 1.03 | 1.01 | 1.3 | 0.978 | 1.23
V fixed | 1.39 | 2.09 | 0.723 | 0.75 | 1.53 | 0.616 | 0.848 | 0.97 | 1.02
W fixed | 1.15 | 0.695 | 1.2 | 1.32 | 1.02 | 0.815 | 0.931 | 1.14 | 1.13
Y fixed | 1.19 | 0.795 | 1.29 | 1.14 | 1.3 | 0.856 | 0.999 | 1.07 | 1.16
pThr fixed | 0.771 | 0.821 | 0.698 | 0.728 | 0.751 | 0.781 | 0.938 | 0.862 | 0.958
pTyr fixed | 0.752 | 0.601 | 0.942 | 1.37 | 1.03 | 0.723 | 1 | 0.967 | 1.05

MAP3K15, construct: aa631-922, human (from UniProt Q6ZN16)
relative phosphorylation
Conditions | at +1 | at +2 | at +3 | at +4 | at -1 | at -2 | at -3 | at -4 | at -5
A fixed | 0.514 | 0.74 | 1.02 | 0.926 | 1.01 | 1.79 | 1.14 | 1.02 | 0.99
D fixed | 0.2 | 0.473 | 0.377 | 0.494 | 0.459 | 0.498 | 0.88 | 0.771 | 0.79
E fixed | 0.257 | 0.337 | 0.401 | 0.534 | 0.471 | 0.513 | 0.73 | 0.739 | 0.743
F fixed | 1.94 | 1.79 | 0.942 | 0.898 | 0.745 | 0.735 | 0.771 | 0.855 | 1.1
G fixed | 0.39 | 0.733 | 1.07 | 1.07 | 2.13 | 1.26 | 1.04 | 1.29 | 1.24
H fixed | 1.08 | 1.01 | 1.04 | 1.04 | 0.94 | 0.852 | 1.07 | 0.963 | 1.17
I fixed | 1.94 | 0.567 | 1.09 | 1.13 | 0.415 | 0.859 | 0.687 | 0.668 | 0.761
K fixed | 0.39 | 1.48 | 1.14 | 1.82 | 1.43 | 0.864 | 1.18 | 1.06 | 1.05
L fixed | 1.41 | 0.76 | 1.01 | 0.885 | 0.828 | 0.983 | 0.799 | 0.788 | 0.759
M fixed | 1.18 | 0.952 | 1.02 | 0.926 | 0.963 | 1.07 | 0.837 | 0.896 | 0.929
N fixed | 0.439 | 0.782 | 0.971 | 0.91 | 1.28 | 1.26 | 1.18 | 1.19 | 0.988
P fixed | 0.352 | 0.676 | 1.08 | 0.971 | 1.15 | 1.63 | 1.6 | 1.37 | 1.2
Q fixed | 0.604 | 0.79 | 0.917 | 1.1 | 1.07 | 1.13 | 1.26 | 1.1 | 1.08
R fixed | 0.481 | 1.7 | 1.39 | 1.2 | 1.73 | 0.885 | 1.21 | 1.15 | 1.03
V fixed | 1.84 | 0.617 | 1.12 | 0.866 | 0.524 | 1.13 | 0.776 | 0.888 | 1.24
W fixed | 1.83 | 1.02 | 1.19 | 1.15 | 0.745 | 0.693 | 0.917 | 1.08 | 1.02
Y fixed | 2.16 | 2.58 | 1.24 | 1.07 | 1.12 | 0.848 | 0.925 | 1.18 | 0.915
pThr fixed | 0.588 | 0.497 | 0.73 | 0.394 | 0.639 | 1.06 | 1.04 | 0.928 | 1.09
pTyr fixed | 0.529 | 0.403 | 0.951 | 0.582 | 0.832 | 0.888 | 1.02 | 0.936 | 1.2
